B1: HDV Ribozyme (parent)
chain: GGCCGGCAUGGUCCCAGCCUCCUCGCUGGCGCCGGCUGGGCAACAUUCCGAGGGGACCGUCCCCUCGGUAAUGGCGAAUGGGACCCA

The data set covers variants of B1. Put plainly: self-cleavage, relative activity (ratio to wild type); higher = more cleavage; co-transcriptional.
Turning to GGCCGGCAUGGUCCCAGCCUCCUCGGUGGCGCCGGCUGGGCAACAUUCCGAGGGGACCAUCCCCUCGGUAAUGGCGAAUGGGACCCA [C26G G59A], the self-cleavage is 0.903. The figure for GGCCGGCAUGGUCCCAGCCUCCUCGGUGGCGCCGGCUGGGCAACAUUCCGAGGGGACCCUCCCCUCGGUAAUGGCGAAUGGGACCCA [C26G G59C] is 0.87; for GGCCGGCAUGGUCCCAGCCUCCUCGUUGGCGCCGGCUGGGCAGCAUUCCGAGGGGACCGUCCCCUCGGUAAUGGCGAAUGGGACCCA [C26U A43G] it is 0.745; for GGCCGGCAUGGUCCCAGCCUCCUCGUUGGCGCCGGCUGGGCAUCAUUCCGAGGGGACCGUCCCCUCGGUAAUGGCGAAUGGGACCCA [C26U A43U] it is 0.708. The figure for GGCCGGCAUGGUCCCAGCCUCCUCGGUGGCGCCGGCUGGGCAACAUUCCGAGGGGACCGUCCCCUCGGGAAUGGCGAAUGGGACCCA [C26G U69G] is 0.787; for GGCCGGCAUGGUCCCAGCCUCCUCGGUGGCGCCGGCUGGGCAACAUUCCGAGGGUACCGUCCCCUCGGUAAUGGCGAAUGGGACCCA [C26G G55U] it is 0.975. The figure for GGCCGGCAUGGUCCCAGCCUCCUCGGUGGCGCCGGCAGGGCAACAUUCCGAGGGGACCGUCCCCUCGGUAAUGGCGAAUGGGACCCA [C26G U37A] is 0.213. For the variant GGCCGGCAUGGUCCCAGCCUCCUCGGUGGCGCCGGCUGGGCAACAUUCCGAGGCGACCGUCCCCUCGGUAAUGGCGAAUGGGACCCA [C26G G54C], the self-cleavage came to 0.782.

For GGCCGGCAUGGUCCCAGCCUCCUCGGUGGCGCCGGCUGGGCAACAUUCCGAGGUGACCGUCCCCUCGGUAAUGGCGAAUGGGACCCA [C26G G54U], the self-cleavage was 0.941. For GGCCGGCAUGGUCCCAGCCUCCUCGGUGGCGCCGGCUGGGCAACACUCCGAGGGGACCGUCCCCUCGGUAAUGGCGAAUGGGACCCA [C26G U46C], the self-cleavage came out at 1.15.

For the variant GGCCGGCAUGGUCCCAGCCUCCUCGGUGGCGCCUGCUGGGCAACAUUCCGAGGGGACCGUCCCCUCGGUAAUGGCGAAUGGGACCCA [C26G G34U], the self-cleavage came out at 0.525.

As for GGCCGGCAUGGUCCCAGCCUCCUCGGUGGCGCCGGCUGGGCAACAUUCCGAGGGGACCGUCCCCUCAGUAAUGGCGAAUGGGACCCA [C26G G67A], the self-cleavage worked out at 0.696. The figure for GGCCGGCAUGGUCCCAGCCUCCUCGGUGGCGCCGGCUGGGCAACAUUCCGAGGGGACCGUCCCCUUGGUAAUGGCGAAUGGGACCCA [C26G C66U] is 1.16; for GGCCGGCAUGGUCCCAGCCUCCUCGGUGGCGCCGGCUGGUCAACAUUCCGAGGGGACCGUCCCCUCGGUAAUGGCGAAUGGGACCCA [C26G G40U] it is 0.9; for GGCCGGCAUGGUCCCAGCCUCCUCGGUGGCGCCGGCUGGACAACAUUCCGAGGGGACCGUCCCCUCGGUAAUGGCGAAUGGGACCCA [C26G G40A] it is 0.912. The figure for GGCCGGCAUGGUCCCAGCCUCCUCGUUGGCGCCGGCUGGGCGACAUUCCGAGGGGACCGUCCCCUCGGUAAUGGCGAAUGGGACCCA [C26U A42G] is 0.902; for GGCCGGCAUGGUCCCAGCCUCCUCGGUGGCGCCGGCUGGGCAACAUUCCGAGGGGACCGUCCCCUCGGUAAUGGCGAAUGGGAGCCA [C26G C84G] it is 0.615. The figure for GGCCGGCAUGGUCCCAGCCUCCUCGGUGGCGCCGGCUGGGCAACAUUCCGAGGGGACCGUCCCCACGGUAAUGGCGAAUGGGACCCA [C26G U65A] is 0.655; for GGCCGGCAUGGUCCCAGCCUCCUCGGUGGCGCCGGCUGGGCAACAUUCCGAGGGGACCGUCCCCUCGGUAACGGCGAAUGGGACCCA [C26G U72C] it is 0.862; for GGCCGGCAUGGUCCCAGCCUCCUCGUUGGCGCCGGCUGGGCAACAUUCCGAGGGGCCCGUCCCCUCGGUAAUGGCGAAUGGGACCCA [C26U A56C] it is 1.12. Turning to GGCCGGCAUGGUCCCAGCCUCCUCGUUGGCGCCGGCUGGGCAACAUUCCGAGGGGUCCGUCCCCUCGGUAAUGGCGAAUGGGACCCA [C26U A56U], the self-cleavage is 1.12. The figure for GGCCGGCAUGGUCCCAGCCUCCUCGUUGGCGCCGGCUGGGCAACGUUCCGAGGGGACCGUCCCCUCGGUAAUGGCGAAUGGGACCCA [C26U A45G] is 0.831; for GGCCGGCAUGGUCCCAGCCUCCUCGGUGGCGCCGGCUCGGCAACAUUCCGAGGGGACCGUCCCCUCGGUAAUGGCGAAUGGGACCCA [C26G G38C] it is 0.151; for GGCCGGCAUGGUCCCAGCCUCCUCGGUGGCGCCGGCUUGGCAACAUUCCGAGGGGACCGUCCCCUCGGUAAUGGCGAAUGGGACCCA [C26G G38U] it is 0.435. The figure for GGCCGGCAUGGUCCCAGCCUCCUCGGUGGCGCCGGCUGGGCAACAUUCCGAGGGGACCGACCCCUCGGUAAUGGCGAAUGGGACCCA [C26G U60A] is 1.05; for GGCCGGCAUGGUCCCAGCCUCCUCGGUGGCGCCGGCUGGGCAACAUUCCGAGGGGACCGCCCCCUCGGUAAUGGCGAAUGGGACCCA [C26G U60C] it is 1.31. GGCCGGCAUGGUCCCAGCCUCCUCGGUGGCGCCGGCUGGGCAACAUUCCGAGGGGACCGUCCCCUCGGUAAUGGGGAAUGGGACCCA [C26G C75G]: the self-cleavage was determined as 0.227. Regarding GGCCGGCAUGGUCCCAGCCUCCUCGGUGGCGCCGGCUGGGCAACAUUCCGAGGGGACCGUCCCCUCGGUAAUGGUGAAUGGGACCCA [C26G C75U], the self-cleavage stood at 0.262. The figure for GGCCGGCAUGGUCCCAGCCUCCUCGUUGGCGCCGGCUGGGCAACAUUCCGGGGGGACCGUCCCCUCGGUAAUGGCGAAUGGGACCCA [C26U A51G] is 0.95; for GGCCGGCAUGGUCCCAGCCUCCUCGGUGGCGCCGGCUGGGCAACAUUCCGAGGGGACCGUCCCCUCGGUAAUGGCCAAUGGGACCCA [C26G G76C] it is 0.884. Take GGCCGGCAUGGUCCCAGCCUCCUCGGUGGCGCCGGCUGGGCAACAUUCCGAGGGGACCGUCCCCUCGGUAAUGGCAAAUGGGACCCA [C26G G76A]: the self-cleavage is 0.914.

Turning to GGCCGGCAUGGUCCCAGCCUCCUCGGUGGCGCCGGCUGGGCAACAUUCCGAGGGGACCGUCCCCUCGGUAAUGGCGAAUGAGACCCA [C26G G81A], the self-cleavage is 0.77.

The values above are taken from the RNAGym collection of RNA variant scans (doi:10.7554/elife.80360).
